Paper PMC3351151 (Nucleic Acids Research, 2012)

Target: the molecule itself
Assay: crystal structure

B1: His-HypR (His-tagged HypR, wild type), oxidized by diamide or NaOCl (natural protein, B. subtilis, UniProt P37486 1-125, looked up)
chain: MSEKKNIYPNKEGCPVEFTLDVIGGKWKGILFYHMIDGKKRFNEFRRICPSITQRMLTLQLRELEADGIVHREVYHQVPPKVEYSLTEFGRTLEPIVLQMKEWGESNRDVLESYRSNGLVKDQQK
modifications: Cys14-Cys49' intersubunit disulphide after oxidation with diamide or NaOCl
B1 was tested, and the “stoichiometry N” value was 2.
